Test results taken from patent US20150266977A1 (AbbVie / Abbott, published 2015).

T1: recombinant human sclerostin (human, UniProt Q9BQB4 24-213)
T1 construct: biotinylated in the ELISAs; also called hu sclerostin; hu scl
T1 sequence: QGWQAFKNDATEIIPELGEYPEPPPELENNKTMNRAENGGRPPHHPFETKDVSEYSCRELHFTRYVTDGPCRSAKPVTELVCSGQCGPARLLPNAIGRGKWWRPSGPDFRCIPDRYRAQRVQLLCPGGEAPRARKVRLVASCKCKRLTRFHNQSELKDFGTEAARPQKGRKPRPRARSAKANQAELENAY


How the values were obtained:
[1] = target: T1, recombinant human sclerostin; assay: capture ELISA, biotin-sclerostin
[2] = target: T1, recombinant human sclerostin; assay: direct bind ELISA
recombinant human TNF-α [3] = target: T2, recombinant human TNF-α (human, UniProt P01375 77-233); assay: SPR
T2 construct: also called huTNF; Human TNFa
T2 sequence (P01375 77-233 limits assumed): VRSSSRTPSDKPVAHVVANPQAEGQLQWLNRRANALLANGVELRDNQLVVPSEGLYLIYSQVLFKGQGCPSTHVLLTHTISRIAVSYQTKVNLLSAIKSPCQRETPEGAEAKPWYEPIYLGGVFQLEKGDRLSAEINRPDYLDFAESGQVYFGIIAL
Description: (§1) The binding of antibodies or anti-sclerostin-TNF DVD to purified recombinant human, cynomolgus monkey (cyno), rat and mouse sclerostin and TNFα was determined by surface plasmon resonance-based measurements with a Biacore T100 or T200 instruments (GE Healthcare Life Sciences, Piscataway, N.J., USA) using running HBS-EP+ (10 mM HEPES [pH 7.4], 150 mM NaCl, 3 mM EDTA, and 0.005% surfactant P20) containing additional 150 mM NaCl, and/or 10 mg/ml carboxymethyl dextran, 0.1 mg/ml BSA at 25° C. All chemicals were obtained from GE Healthcare Life Sciences, Piscataway, N.J., USA or otherwise from a different source as described in the text. Approximately 10,000 RU (or 3000 RU when CM3 chip was used) of goat anti-mouse or anti-human IgG (Fcγ) fragment specific polyclonal antibody (Pierce Biotechnology Inc, Rockford, Ill.) diluted in 10 mM sodium acetate (pH 4.5) was directly immobilized across a CM5 (or CM3) research grade biosensor chip using a standard amine coupling kit according to manufacturer's instructions and procedures at 15 μg/ml. Unreacted moieties on the biosensor surface were blocked with ethanolamine. Modified carboxymethyl dextran surface in flowcells 2, 3 and 4 were used as a reaction surface. Modified carboxymethyl dextran in flow cell 1 was used as the reference surface. Biaevaluation T100 software version 2.0.2, GE Healthcare Life Sciences was used to simultaneously fit association and dissociation phases of all injections (using 1:1 fit analysis with local Rmax). Purified antibodies were diluted in running buffer for capture across goat anti-mouse or anti-human IgG specific reaction surfaces. Antibodies to be captured as a ligand (1 μg/ml) were injected over reaction matrices at a flow rate of 10 μl/minute. The association and dissociation rate constants, kon (unit M-1 s-1) and koff (unit s-1) were determined under a continuous flow rate of 50 μl/minute. […] At the end of each cycle the surfaces were regenerated with 10 s injection of 50 mM NaOH or/and by 10 s injection of 10 mM Glycine pH1.5 at a flow rate of 100 μl/min.

[4] = target: T1, recombinant human sclerostin; assay: SPR
Description: as §1

recombinant human TNF-α [5] = target: T2, recombinant human TNF-α; assay: cell-based or functional assay
Rhesus/cynoTNFa = Rhesus/cynoTNFa (Rhesus/cyno); assay: cell-based or functional assay
Chain of Rhesus/cynoTNFa (Rhesus/cyno) (P48094 whole entry): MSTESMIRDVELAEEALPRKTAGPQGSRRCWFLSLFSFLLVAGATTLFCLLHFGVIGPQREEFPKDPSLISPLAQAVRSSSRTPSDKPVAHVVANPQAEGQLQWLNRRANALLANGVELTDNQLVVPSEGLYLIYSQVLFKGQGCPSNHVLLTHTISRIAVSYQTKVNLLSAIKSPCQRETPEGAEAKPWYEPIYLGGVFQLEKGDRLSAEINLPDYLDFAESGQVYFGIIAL

recombinant human TNF-α [6] = target: T2, recombinant human TNF-α; assay: cell-based or functional assay; remark: listed apart in the source
[7] = target: T3, recombinant cynomolgus monkey sclerostin (cynomolgus monkey); assay: SPR
T3 construct: also called cyno sclerostin; Cyno sclerostin
Description: as §1

| EC50 [1] | binding result [2] | Kd (recombinant human TNF-α [3]) | koff (recombinant human TNF-α [3]) | kon (recombinant human TNF-α [3]) | Kd [4] | koff [4] | kon [4] | L929 TNF neutralization IC50 (Rhesus/cynoTNFa) | Binder | further results |
| --- | --- | --- | --- | --- | --- | --- | --- | --- | --- | --- |
| 0.427 nM | – | – | – | – | – | – | – | – | MSL10 (antibody, V domains shown, fully human mAb) VH: EVQLVESGGGLVQPGGSLRLSCTASGFTFDDYALHWVRQAPGKGLEWVSGISWHGDFIDYADSVKGRFTISRDNSKNTLYLQMNGLRVEDMAIYYCAGNNRGYGGLDVWGQGTTVTVSS VL: not shown | – |
| – | binds | – | – | – | – | – | – | – | MSK13 (antibody, V domains shown, fully human mAb) VH: EMQLVQSGAEVKKPGASVKVSCKASGYTFSGYYMNWVRQAPGQGLEWMGWINPYSGAATYAQDFQGRITVTRDTSISTGYMELTRLTSTDTAVYYCARGGTITGASWYFDVWGRGTLVTVSS VL: DIVMTQTPLSLPVTLGQPASISCRSSQSLVHSDGNTYLNWFQQRPGQSPRRLIYKVSNRDSGVPDRFSGSGSGTDFTLKISRVEAEDVGVYYCMQGTHWPQLTFGGGTKVEIKR | – |
| 0.778 nM | – | – | – | – | – | – | – | – | MSL17 (antibody, V domains shown, fully human mAb) VH: EVQLLESGGGLVKPGRSLRLSCVAYGFSLTGYSMNWVRQAPGKGLEWVSSISPNDTYRHYADSVKGRFTISRDNAKNSLYLQMNSLRAEDTAVYYCARDTNYRDSGGYFYDVFDIWGQGTMVTVSS VL: SYELTQPPSVSVAPGETARVTCEGNNIGNKGVHWYQQKPGQAPVLVVYDDSDRPSGIPERFSGSNSGNTATLTISRVEAGDDADYYCQVWDSSSDVFGSGTKVTVLG | – |
| – | – | 0.017 nM | 4.4e-05 s⁻¹ | 2.6e+06 M⁻¹ s⁻¹ | 0.052 nM | 8.3e-06 s⁻¹ | 160000 M⁻¹ s⁻¹ | 0.0569 nM | MAK199-1-SS-AE10-6 AM7 (bispecific antibody, human IgG1, lambda, L234A L235A, DVD-Ig: outer MAK199-1, inner AE10-6 AM7) heavy: not shown light: DIQMTQSPSSLSASVGDRVTITCRASQDISQYLNWYQQKPGKAPKLLIYYTSRLQSGVPSRFSGSGSGTDFTLTISSLQPEDFATYFCQQGNTWPPTFGQGTKLEIKRTVAAPQAVVTQEPSLTVSPGGTVTLTCGSSTGTVTIDHYPYWFQQKPGQAPRTLISDTDDKHSWTPARFSGSLLGGKAALTLSGAQPEDEAEYYCLLDYGGRFVFGGGTKLTVLGQPKAAPSVTLFPPSSEELQANKATLVCLISDFYPGAVTVAWKADSSPVKAGVETTTPSKQSNNKYAASSYLSLTPEQWKSHRSYSCQVTHEGSTVEKTVAPTECS | L929 TNF neutralization IC50 (recombinant human TNF-α [5]): 0.0581 nM |
| 12.3 nM | – | – | – | – | – | – | – | – | MSL9-8 (antibody, V domains shown, fully human mAb) VH: EVQLVESGGGLVQPGGSLRLSCAASGFRFTDYWMTWVRQAPGKGPEWVANINEDGSKKHYADSVKDRFIISRDNAKKSLSLQMKRMRAEDTAVYYCAADLNPHWLVGWGQGTLVTVSS VL: QPVLTQPPSVSVAPGKTARITCGGNNIGSRRVHWYQQKPGQAPVLVVYDDNDRPSGIPERFSGSKSGNTATLTISRVEAGDEADYYCQVWHSGRVFGTGTKVTVLG | – |
| – | binds | – | – | – | – | – | – | – | MSK9 (antibody, V domains shown, fully human mAb) VH: EVQLLESGGGLVQPGGSLRLSCAASGFTFRSYWMSWVRQAPGKGLEWVASIKQDGSKKHYADSVKDRFIISRDNAKKSLSLQMKRMRAEDTAVYYCAADLNPHWLVGWGQGTLVTVSS VL: DIVMTQTPLSLPVTPGEPASISCRSSQSLLHSNGYNYLDWYLQKPGQSPQLLIYLGSKRASGVPDRFSGSGSGTDFTLKISRVGAEDVGVYYCMQGLQTPKAFGPGTKVDIKR | – |
| – | binds | – | – | – | – | – | – | – | MSK21 (antibody, V domains shown, fully human mAb) VH: EVQLQQSGPGLVKPSQTLSLTCAISGDSVSSNIVAWNWIRQSPSRGLEWLGRTYYTSKWFNQYAMSVKSRITINPDTSKNQVSLKLSSVTAADTAAYYCARVGGTYDFWSGYYRPYYYGMDVWGQGTMVTVSS VL: DIRLTQSPSSLSASIGDTVTISCRSSQPINTHLNWFRQLPGRAPELLIYGSSSLHTGVPSRFSGSGSGTDFTLTITSLQRGDFLTYYCQQTHRLPITFGQGTRLDIKR | – |
| – | – | 0.027 nM | 5.8e-05 s⁻¹ | 2.1e+06 M⁻¹ s⁻¹ | 0.00039 nM | 2.3e-06 s⁻¹ | 5.9e+06 M⁻¹ s⁻¹ | 0.042 nM | MAK199-1-GS-AE10-6 AM7 (bispecific antibody, human IgG1, lambda, L234A L235A, DVD-Ig: outer MAK199-1, inner AE10-6 AM7; also called MAK199-1-GS-AM10-6 AM7; MAK199-1GSAM10-6 AM7) heavy: not shown light: DIQMTQSPSSLSASVGDRVTITCRASQDISQYLNWYQQKPGKAPKLLIYYTSRLQSGVPSRFSGSGSGTDFTLTISSLQPEDFATYFCQQGNTWPPTFGQGTKLEIKRGGSGGGGSGQAVVTQEPSLTVSPGGTVTLTCGSSTGTVTIDHYPYWFQQKPGQAPRTLISDTDDKHSWTPARFSGSLLGGKAALTLSGAQPEDEAEYYCLLDYGGRFVFGGGTKLTVLGQPKAAPSVTLFPPSSEELQANKATLVCLISDFYPGAVTVAWKADSSPVKAGVETTTPSKQSNNKYAASSYLSLTPEQWKSHRSYSCQVTHEGSTVEKTVAPTECS | L929 TNF neutralization IC50 with 50 nM SOST (recombinant human TNF-α [6]): 0.036 nM; L929 TNF neutralization IC50 without 50 nM SOST (recombinant human TNF-α [6]): 0.025 nM; Kd [7]: < 0.00011 nM; koff [7]: < 1e-06 s⁻¹; kon [7]: 9.3e+06 M⁻¹ s⁻¹; L929 TNF neutralization IC50 (recombinant human TNF-α [5]): 0.0677 nM |
| – | – | 0.007 nM | 3e-05 s⁻¹ | 4.2e+06 M⁻¹ s⁻¹ | < 0.00016 nM | < 1e-06 s⁻¹ | 6.1e+06 M⁻¹ s⁻¹ | – | MAK199-1-GS-AE10-6 AM7 QL (bispecific antibody, human IgG1, lambda, L234A L235A, DVD-Ig with CH QL) heavy: EVQLVQSGAEVKKPGASVKVSCKASGYTFANYGIIWVRQAPGQGLEWMGWINTYTGKPTYAQKFQGRVTMTTDTSTSTAYMELSSLRSEDTAVYYCARKLFTTMDVTDNAMDYWGQGTTVTVSSGGGGSGGGGSEVQLVQSGAEVKKPGASVKVSCKVSGYTLTELSMHWVRQAPGKGLEWMGGFDPEDGETIYAQKFQGRVTMTEDTSTDTAYMELSSLRSEDTAVYYCATDTVGYWEKFFQHWGQGTLVTVSSASTKGPSVFPLAPSSKSTSGGTAALGCLVKDYFPEPVTVSWNSGALTSGVHTFPAVLQSSGLYSLSSVVTVPSSSLGTQTYICNVNHKPSNTKVDKKVEPKSCDKTHTCPPCPAPEAAGGPSVFLFPPKPKDQLMISRTPEVTCVVVDVSHEDPEVKFNWYVDGVEVHNAKTKPREEQYNSTYRVVSVLTVLHQDWLNGKEYKCKVSNKALPAPIEKTISKAKGQPREPQVYTLPPSREEMTKNQVSLTCLVKGFYPSDIAVEWESNGQPENNYKTTPPVLDSDGSFFLYSKLTVDKSRWQQGNVFSCSVLHEALHNHYTQKSLSLSPGK light: DIQMTQSPSSLSASVGDRVTITCRASQDISQYLNWYQQKPGKAPKLLIYYTSRLQSGVPSRFSGSGSGTDFTLTISSLQPEDFATYFCQQGNTWPPTFGQGTKLEIKRGGSGGGGSGQAVVTQEPSLTVSPGGTVTLTCGSSTGTVTIDHYPYWFQQKPGQAPRTLISDTDDKHSWTPARFSGSLLGGKAALTLSGAQPEDEAEYYCLLDYGGRFVFGGGTKLTVLGQPKAAPSVTLFPPSSEELQANKATLVCLISDFYPGAVTVAWKADSSPVKAGVETTTPSKQSNNKYAASSYLSLTPEQWKSHRSYSCQVTHEGSTVEKTVAPTECS | L929 TNF neutralization IC50 with 50 nM SOST (recombinant human TNF-α [6]): 0.032 nM; L929 TNF neutralization IC50 without 50 nM SOST (recombinant human TNF-α [6]): 0.033 nM; Kd [7]: < 0.0001 nM; koff [7]: < 1e-06 s⁻¹; kon [7]: 9.9e+06 M⁻¹ s⁻¹ |
| – | – | – | – | – | < 0.00015 nM | < 1e-06 s⁻¹ | 6.8e+06 M⁻¹ s⁻¹ | > 2 nM | AE10-6 AM7-GS-MAK195-21 (bispecific antibody, human IgG1, kappa, L234A L235A, DVD-Ig: outer AE10-6 AM7, inner MAK195-21) heavy: not shown light: QAVVTQEPSLTVSPGGTVTLTCGSSTGTVTIDHYPYWFQQKPGQAPRTLISDTDDKHSWTPARFSGSLLGGKAALTLSGAQPEDEAEYYCLLDYGGRFVFGGGTKLTVLGGGSGGGGSGDIQMTQSPSSLSASVGDRVTITCRASQLVSSAVAWYQQKPGKAPKLLIYWASARHTGVPSRFSGSGSGTDFTLTISSLQPEDFATYYCQQHYKTPFTFGQGTKLEIKRTVAAPSVFIFPPSDEQLKSGTASVVCLLNNFYPREAKVQWKVDNALQSGNSQESVTEQDSKDSTYSLSSTLTLSKADYEKHKVYACEVTHQGLSSPVTKSFNRGEC | – |
